The text below walks through data of patent US20060193829A1.

Positions of bridges follow the written chain, without caps; N, C: chain ends. No end group written: not given here. *: point of attachment. NHNH2 = NN*

The target of assay [1] is REFACTO® (recombinant factor VIII-like polypeptide consisting of amino acids 1-743 and 1638 through 2332 of human factor VIII) (human) (UniProt P00451). The assay is described as follows: affinity column, peptide on Toyopearl Formyl 650-M; target in fraction by RP-HPLC.
REFACTO® (recombinant factor VIII-like polypeptide consisting of amino acids 1-743 and 1638 through 2332 of human factor VIII) (human), sequence (P00451 20-762, chain 1 of 2): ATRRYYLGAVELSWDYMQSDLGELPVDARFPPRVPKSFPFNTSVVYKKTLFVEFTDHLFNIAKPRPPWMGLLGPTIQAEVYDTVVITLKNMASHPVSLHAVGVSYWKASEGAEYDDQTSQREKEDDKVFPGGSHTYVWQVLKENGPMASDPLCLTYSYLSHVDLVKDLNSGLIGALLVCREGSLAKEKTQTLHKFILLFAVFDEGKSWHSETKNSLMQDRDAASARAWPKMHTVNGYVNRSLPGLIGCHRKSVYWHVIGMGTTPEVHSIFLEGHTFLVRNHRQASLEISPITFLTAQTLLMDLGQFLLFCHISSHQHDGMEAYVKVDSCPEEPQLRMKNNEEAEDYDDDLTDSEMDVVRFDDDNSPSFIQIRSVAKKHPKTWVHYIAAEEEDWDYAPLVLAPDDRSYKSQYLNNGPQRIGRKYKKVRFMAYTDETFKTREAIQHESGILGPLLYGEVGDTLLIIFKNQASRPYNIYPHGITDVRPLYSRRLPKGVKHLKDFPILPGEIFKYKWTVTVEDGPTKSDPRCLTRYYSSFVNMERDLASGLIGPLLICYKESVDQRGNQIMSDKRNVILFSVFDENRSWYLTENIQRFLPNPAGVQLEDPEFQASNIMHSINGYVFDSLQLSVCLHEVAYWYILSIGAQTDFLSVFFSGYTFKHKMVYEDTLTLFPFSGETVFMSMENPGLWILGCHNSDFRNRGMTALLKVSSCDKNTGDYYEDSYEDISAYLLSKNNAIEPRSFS
REFACTO® (recombinant factor VIII-like polypeptide consisting of amino acids 1-743 and 1638 through 2332 of human factor VIII) (human), sequence (P00451 1657-2351, chain 2 of 2): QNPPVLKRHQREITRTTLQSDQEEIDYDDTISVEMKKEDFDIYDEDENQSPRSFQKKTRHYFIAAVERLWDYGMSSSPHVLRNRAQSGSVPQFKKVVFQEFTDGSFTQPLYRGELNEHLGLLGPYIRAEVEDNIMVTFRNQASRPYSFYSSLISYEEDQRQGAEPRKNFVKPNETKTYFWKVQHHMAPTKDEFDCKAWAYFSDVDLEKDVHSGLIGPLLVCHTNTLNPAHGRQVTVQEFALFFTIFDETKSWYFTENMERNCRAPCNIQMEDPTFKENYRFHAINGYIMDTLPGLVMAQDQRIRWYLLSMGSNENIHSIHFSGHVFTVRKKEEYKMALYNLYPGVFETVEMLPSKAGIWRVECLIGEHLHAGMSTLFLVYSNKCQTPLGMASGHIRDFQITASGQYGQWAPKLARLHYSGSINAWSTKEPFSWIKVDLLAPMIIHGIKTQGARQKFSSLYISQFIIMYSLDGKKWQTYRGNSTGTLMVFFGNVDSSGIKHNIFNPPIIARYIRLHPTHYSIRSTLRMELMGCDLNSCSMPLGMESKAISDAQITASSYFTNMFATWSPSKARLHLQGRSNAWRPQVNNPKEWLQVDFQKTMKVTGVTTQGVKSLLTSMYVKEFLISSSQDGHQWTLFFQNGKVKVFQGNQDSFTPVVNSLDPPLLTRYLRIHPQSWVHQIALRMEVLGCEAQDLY
The target is the same in assay [2]. The assay is described as follows: affinity column, peptide on Toyopearl Formyl 650-M; target in fraction by activity assay.
For assay [3] the target is unchanged. The assay is described as follows: batch binding to peptide beads; target in fraction by sandwich ELISA.
Assay [4] deals with native human factor VIII (nhfVIII) (human) (UniProt P00451). The assay is described as follows: batch binding to regenerated peptide beads; target in fraction by sandwich ELISA. On the technique in general: ELISA stands for enzyme-linked immunosorbent assay.
native human factor VIII (nhfVIII) (human), sequence (P00451 20-2351): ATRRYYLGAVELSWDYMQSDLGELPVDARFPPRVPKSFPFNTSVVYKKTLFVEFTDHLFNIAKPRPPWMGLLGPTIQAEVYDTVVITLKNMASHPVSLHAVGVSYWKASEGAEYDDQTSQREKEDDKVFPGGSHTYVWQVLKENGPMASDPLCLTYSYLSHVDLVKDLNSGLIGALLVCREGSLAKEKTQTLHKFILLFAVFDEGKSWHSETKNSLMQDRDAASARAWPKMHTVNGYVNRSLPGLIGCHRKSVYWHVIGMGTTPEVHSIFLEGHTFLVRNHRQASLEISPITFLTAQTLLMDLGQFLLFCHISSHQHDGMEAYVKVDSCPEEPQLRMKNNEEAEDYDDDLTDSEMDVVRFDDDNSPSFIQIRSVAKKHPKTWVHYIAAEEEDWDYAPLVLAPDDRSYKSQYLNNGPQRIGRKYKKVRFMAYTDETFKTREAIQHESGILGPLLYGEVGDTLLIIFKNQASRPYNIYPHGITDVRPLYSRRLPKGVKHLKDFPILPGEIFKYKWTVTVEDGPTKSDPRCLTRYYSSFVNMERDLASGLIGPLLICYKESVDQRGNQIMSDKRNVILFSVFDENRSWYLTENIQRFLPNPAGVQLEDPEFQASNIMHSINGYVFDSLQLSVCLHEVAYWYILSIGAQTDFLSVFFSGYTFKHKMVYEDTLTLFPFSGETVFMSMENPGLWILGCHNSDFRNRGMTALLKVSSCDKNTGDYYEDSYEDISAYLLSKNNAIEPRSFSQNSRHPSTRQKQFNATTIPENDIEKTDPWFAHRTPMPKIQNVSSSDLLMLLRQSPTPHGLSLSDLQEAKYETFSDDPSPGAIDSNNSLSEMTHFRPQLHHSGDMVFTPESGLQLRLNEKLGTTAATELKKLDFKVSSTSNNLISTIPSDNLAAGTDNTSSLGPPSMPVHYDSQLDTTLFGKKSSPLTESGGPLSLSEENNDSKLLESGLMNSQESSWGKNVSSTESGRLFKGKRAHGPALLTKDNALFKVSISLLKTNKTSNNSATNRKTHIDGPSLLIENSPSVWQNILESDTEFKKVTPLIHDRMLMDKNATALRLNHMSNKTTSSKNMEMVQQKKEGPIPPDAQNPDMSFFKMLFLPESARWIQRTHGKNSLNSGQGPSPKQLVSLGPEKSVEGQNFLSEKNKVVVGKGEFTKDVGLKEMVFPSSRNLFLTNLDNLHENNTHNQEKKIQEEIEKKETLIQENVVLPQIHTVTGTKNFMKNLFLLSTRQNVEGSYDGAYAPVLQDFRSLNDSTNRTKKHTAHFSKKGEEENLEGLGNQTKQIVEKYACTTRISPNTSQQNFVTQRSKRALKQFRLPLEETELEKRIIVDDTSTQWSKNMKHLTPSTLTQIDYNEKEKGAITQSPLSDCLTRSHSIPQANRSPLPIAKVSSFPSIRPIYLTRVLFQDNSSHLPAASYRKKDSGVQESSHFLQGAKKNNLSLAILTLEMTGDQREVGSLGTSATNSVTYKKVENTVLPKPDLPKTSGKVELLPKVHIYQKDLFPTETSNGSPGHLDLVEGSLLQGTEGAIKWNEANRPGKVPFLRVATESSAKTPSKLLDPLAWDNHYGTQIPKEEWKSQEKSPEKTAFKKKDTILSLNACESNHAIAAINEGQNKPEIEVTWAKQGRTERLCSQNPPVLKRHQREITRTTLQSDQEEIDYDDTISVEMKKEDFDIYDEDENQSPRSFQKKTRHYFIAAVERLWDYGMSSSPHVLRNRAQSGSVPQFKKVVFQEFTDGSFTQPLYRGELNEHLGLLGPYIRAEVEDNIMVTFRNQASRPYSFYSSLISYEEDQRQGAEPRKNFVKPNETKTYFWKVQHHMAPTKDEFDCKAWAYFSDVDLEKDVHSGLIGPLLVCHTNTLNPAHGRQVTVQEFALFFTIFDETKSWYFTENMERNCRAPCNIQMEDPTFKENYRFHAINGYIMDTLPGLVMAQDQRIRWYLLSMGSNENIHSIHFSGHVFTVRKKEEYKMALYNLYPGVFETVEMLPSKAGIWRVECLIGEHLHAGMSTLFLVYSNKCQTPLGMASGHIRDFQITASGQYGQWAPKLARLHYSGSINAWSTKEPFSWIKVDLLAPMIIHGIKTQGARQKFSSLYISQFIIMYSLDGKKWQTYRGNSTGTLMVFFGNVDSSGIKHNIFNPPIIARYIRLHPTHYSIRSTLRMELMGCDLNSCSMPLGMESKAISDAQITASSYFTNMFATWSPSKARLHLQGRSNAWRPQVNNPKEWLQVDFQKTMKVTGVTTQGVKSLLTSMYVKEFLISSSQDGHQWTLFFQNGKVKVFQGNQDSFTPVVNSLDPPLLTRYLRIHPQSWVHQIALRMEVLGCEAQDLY
For assay [5], the target named is REFACTO® (recombinant factor VIII-like polypeptide consisting of amino acids 1-743 and 1638 through 2332 of human factor VIII) (human) (UniProt P00451). The assay is described as follows: phage ELISA, phage isolate on factor VIII target, anti-M13-HRP.
The target is the same in assay [6]. The assay is described as follows: phage ELISA, with target against without target.

As for AEGTGDFCWVFPFQHCADPGPEGGGS-NHNH2 (disulfide 8-16 (inferred)) [Affinity ligand CS-459], in assay [1], the % recovery, Elution A was found to be 42.1%; the % recovery, Elution B was found to be 0%; the % recovery, Flow came out at 1.6%; the % recovery, pH2 is 0%. Also, in assay [2], the % recovery, Elution A turned out to be 31.2% and the % recovery, Flow worked out at 6.4%.
For AEGTGDFGCSWLFPCPFDPGPEGGGS-NHNH2 (disulfide 9-15 (inferred)) [Affinity ligand CS-456], in assay [3], the % of Input Recovered in Eluate was determined as 24%, the % of Input Recovered in Unbound turned out to be 47% and the % of Input Recovered in Wash was 20%. Besides, in assay [4], the % of Total Recovered in Eluate was determined as 16%, the % of Total Recovered in Unbound was 70% and the % of Total Recovered in Wash was 14%. Further, in assay [1], the % recovery, Elution A is 44.8%; the % recovery, Elution B was found to be 0%; the % recovery, Flow was 3.4%; the % recovery, pH2 amounted to 0%. Besides, in assay [2], the % recovery, Elution A was 43% and the % recovery, Flow came to 4.8%.
In the case of FHCIGVWFCLH [TN7 isolate A09], the ELISA signal in assay [5] was found to be 0.1 OD630.
As to AEGTGDFCWVFPFHHCFDPGPEGGGS-NHNH2 (disulfide 8-16 (inferred)) [Affinity ligand CS-460], in assay [1], the % recovery, Elution A was found to be 28.8%; the % recovery, Elution B is 0%; the % recovery, Flow amounted to 24.6%; the % recovery, pH2 was found to be 0%. For the same molecule, in assay [2], the % recovery, Elution A stood at 0% and the % recovery, Flow was 28.4%.
As to FGCSWLFPCPF [TN7 isolate A08], the R (ratio of the ELISA score with target present to the ELISA score without target) in assay [6] came out at 8. Besides, in assay [5], the ELISA signal was 0.4 OD630.
Regarding AEGTGDHLCGAWFRPCDADPGPEGGGS-NHNH2 (disulfide 9-16 (inferred)) [Affinity ligand CS-454], in assay [3], the % of Input Recovered in Eluate is 49%, the % of Input Recovered in Unbound was found to be 24% and the % of Input Recovered in Wash turned out to be 12%. In assay [4], the % of Total Recovered in Eluate was determined as 21%, the % of Total Recovered in Unbound was 67% and the % of Total Recovered in Wash stood at 12%. For the same molecule, in assay [1], the % recovery, Elution A stood at 45.1%; the % recovery, Elution B came to 0%; the % recovery, Flow was 2.5%; the % recovery, pH2 stood at 0%. Besides, in assay [2], the % recovery, Elution A amounted to 42.4% and the % recovery, Flow was 2.2%.
On to FCWVFPFQHCA [TN9 isolate 09 (SEQ ID NO: 29)], for which, in assay [6], the R (ratio of the ELISA score with target present to the ELISA score without target) came out at 24. For the same molecule, the ELISA signal in assay [5] amounted to 1.1 OD630.
Consider PHCNWLFPCSL [TN7 isolate D03], for which the ELISA signal in assay [5] is 0.2 OD630.
On to FCWVFAFDHCH (not fully specified (bridges); cysteine pairing not given here) [TN9/1 isolate … (SEQ ID NO: 71)], for which the R (ratio of the ELISA score with target present to the ELISA score without target) in assay [6] amounted to 24.
Consider FCHVFHFSHCD [TN9 isolate 01 (SEQ ID NO: 24)], for which the ELISA signal in assay [5] stood at 0.2 OD630.
For HSCGSWLFPCFA [TN7 isolate A06], in assay [6], the R (ratio of the ELISA score with target present to the ELISA score without target) was determined as 10. Besides, the ELISA signal in assay [5] was 0.5 OD630.
In the case of FCWVFPFHHCF [TN9 isolate 06 (SEQ ID NO: 30)], the R (ratio of the ELISA score with target present to the ELISA score without target) in assay [6] stood at 6. The ELISA signal in assay [5] turned out to be 0.3 OD630.
In the case of FCWVFNFSHCS [TN9 isolate 03 (SEQ ID NO: 26)], the R (ratio of the ELISA score with target present to the ELISA score without target) in assay [6] is 24. Further, the ELISA signal in assay [5] was 1.1 OD630.
FCHVFNFVHCS [TN9 isolate 01 (SEQ ID NO: 31)]: the R (ratio of the ELISA score with target present to the ELISA score without target) in assay [6] came to 8. For the same molecule, the ELISA signal in assay [5] was 0.5 OD630.
For FCHVFPFLHCD [TN9 isolate 11 (SEQ ID NO: 32)], in assay [5], the ELISA signal is 0.2 OD630.
With FCWVFPFNHCS [TN9 isolate 12 (SEQ ID NO: 28)], the R (ratio of the ELISA score with target present to the ELISA score without target) in assay [6] was 18. The ELISA signal in assay [5] is 1 OD630.
Consider RGCGSWLRPCLD [TN8 isolate 05 (SEQ ID NO: 11)], for which the ELISA signal in assay [5] is 0.2 OD630.
Consider RLCSWVSPCSA [TN7 isolate C5/G10], for which the R (ratio of the ELISA score with target present to the ELISA score without target) in assay [6] turned out to be 10. Besides, the ELISA signal in assay [5] worked out at 0.5 OD630.
Take FCWVFQFRHCH [TN9/1 isolate … (SEQ ID NO: 77)]: the R (ratio of the ELISA score with target present to the ELISA score without target) in assay [6] was found to be 8.
As for AEGTGDFHCIGVWFCLHDPGPEGGGS-NHNH2 (disulfide 9-15 (inferred)) [Affinity ligand CS-455], in assay [1], the % recovery, Elution A was 1.4%; the % recovery, Elution B is 0%; the % recovery, Flow came to 65.8%; the % recovery, pH2 was 0%. Also, in assay [2], the % recovery, Elution A was 1.3% and the % recovery, Flow was 61.6%.
As for HPCGAWFNPCPR [TN8 isolate 01 (SEQ ID NO: 19)], the ELISA signal in assay [5] was determined as 0.2 OD630.
AEGTGDHPCGSWLRPCLHDPGPEGGGS-NHNH2 (disulfide 9-16 (inferred)) [Affinity ligand CS-453]: in assay [1], the % recovery, Elution A was 43.2%; the % recovery, Elution B was 0%; the % recovery, Flow worked out at 0%; the % recovery, pH2 was determined as 0%. In addition, in assay [2], the % recovery, Elution A is 26.4% and the % recovery, Flow amounted to 0%.
For the molecule FCWVFNWVHCD [TN9/1 isolate … (SEQ ID NO: 75)], the R (ratio of the ELISA score with target present to the ELISA score without target) in assay [6] was found to be 14.
Turning to HPCGAWLRPCYN [TN8 isolate 08 (SEQ ID NO: 20)], in assay [6], the R (ratio of the ELISA score with target present to the ELISA score without target) came to 20. Besides, the ELISA signal in assay [5] was determined as 1 OD630.
Take HPCGSWFRPCFH [TN8 isolate 02 (SEQ ID NO: 14)]: in assay [6], the R (ratio of the ELISA score with target present to the ELISA score without target) was 16. Also, the ELISA signal in assay [5] was 0.7 OD630.
HPCGSWLHPCAA [TN8 isolate 04 (SEQ ID NO: 12)]: the R (ratio of the ELISA score with target present to the ELISA score without target) in assay [6] turned out to be 6. In assay [5], the ELISA signal came out at 0.3 OD630.
As to HGCGAWFRPCHA [TN8 isolate 01 (SEQ ID NO: 18)], the ELISA signal in assay [5] worked out at 0.2 OD630.
On to HLCGAWFRPCDA [TN8 isolate 02 (SEQ ID NO: 16)], for which the R (ratio of the ELISA score with target present to the ELISA score without target) in assay [6] worked out at 6. Besides, in assay [5], the ELISA signal turned out to be 0.4 OD630.
Turning to HPCGSWLRPCLH [TN8 isolate 10 (SEQ ID NO: 10)], in assay [6], the R (ratio of the ELISA score with target present to the ELISA score without target) was 16. In assay [5], the ELISA signal was 1 OD630.
As for FCWVHPFAHCL [TN9 isolate 02 (SEQ ID NO: 23)], the ELISA signal in assay [5] is 0.2 OD630.
HACGSWFRPCHA [TN8 isolate 07 (SEQ ID NO: 15)]: the R (ratio of the ELISA score with target present to the ELISA score without target) in assay [6] came out at 6. Further, in assay [5], the ELISA signal is 0.4 OD630.
Take RLCSWISPCSA [TN7 isolate D04]: the R (ratio of the ELISA score with target present to the ELISA score without target) in assay [6] was 6. Further, in assay [5], the ELISA signal amounted to 0.3 OD630.
On to HRCGSWLHPCLA [TN8 isolate 11/G10 (SEQ ID NO: 21)], for which, in assay [6], the R (ratio of the ELISA score with target present to the ELISA score without target) stood at 6. The ELISA signal in assay [5] came to 0.3 OD630.
Take HLCFAWFRPCDA [TN8 isolate 12 (SEQ ID NO: 17)]: in assay [6], the R (ratio of the ELISA score with target present to the ELISA score without target) was 8. Further, the ELISA signal in assay [5] is 0.4 OD630.
As to FCWVFPFNHCD [TN9 isolate 02 (SEQ ID NO: 27)], the R (ratio of the ELISA score with target present to the ELISA score without target) in assay [6] stood at 8. In assay [5], the ELISA signal amounted to 0.4 OD630.
Regarding HPCGSWFNPCAH [TN8 isolate 02 (SEQ ID NO: 13)], in assay [6], the R (ratio of the ELISA score with target present to the ELISA score without target) was 8. Moreover, the ELISA signal in assay [5] stood at 0.3 OD630.
